“And” between values parts separate entries of the source, which are not always exact repeats. Identical values can stand only once. “Also recorded” adds a separate entry of the source.
Assays:
[1] = test system: preterm infants born before week 32 of gestational age; assay: Treatment-emergent adverse events, studies BVT.BSSL-020/-021
Description: (§1) The adverse event (AE) reporting period in each study began upon administration of the first dose (Day 1) of investigational medication and ended at the Follow-up Visit (1 week±3 days after the last dose of study drug intake). All AEs that occurred in a patient during the adverse event reporting period were to be reported, whether or not the event was considered medication/product related. In addition, any known untoward event that occurred subsequent to the AE reporting period that the investigator assessed as possibly, probably, or definitely related to the investigational product were also to be reported as an AE.
(§2) MedDRA dictionary version 10.0 was used to classify all AEs reported during either study by system organ class (SOC) and preferred term (PT). All summary tables included counts of patients with treatment-emergent adverse events (TEAEs). The assessment of TEAEs was made in each individual study. […] All TEAEs, treatment related TEAEs (definite, probable, and possible), SAEs, and TEAEs leading to withdrawal of study drug were summarized by MedDRA SOC, PT, and treatment. Both the incidence (proportion of patients) and number of each TEAE were summarized. Additionally, TEAEs were summarized by maximum severity (mild, moderate, or severe). An overall summary of TEAEs was presented by treatment sequence and total and presented the number (%) of patients with TEAEs for each treatment sequence allocated to (1) BSSL only; (2) Placebo only; (3) Both BSSL and placebo; and (4) Neither Treatment.

[2] = test system: preterm infants born before week 32 of gestational age; assay: Change in knee-to-heel length (knemometer), studies BVT.BSSL-020/-021; type: in vivo, human; conditions: FAS and PP, combined data and by study, one week of treatment
Description: The length of the patient's leg was measured from the knee to the heel using a knemometer provided to the sites. Knee-to-heel length was recorded in millimeters on the CRF. To the extent possible, length was measured at approximately the same time each day and by the same person. Three measurements were made and the mean value was entered on the CRF.
Combined Analysis: • The combined statistical analysis of CFA data used the overall CFA values as calculated for each infant/treatment-period from each of the two individual studies. • Change in length (mm): Change in length was defined as the change in length from knee to heel from Day 1 to Day 7 in the first period and Day 10 to Day 16 in the second period. The Exploratory Efficacy Variables were: • Absorption of DHA and AA: Coefficients of absorption of DHA (C22:6 n-3) and AA (C20:4 n-6) measured in feces samples collected during the final 3 days (72 hours) of each treatment period. • Coefficients of absorption of DHA and AA were calculated using the same approach as used for CFA calculations, but using only the amounts of the individual (C22:6 n-3) and (C20:4 n-6) in samples for DHA and AA, respectively. 7.5.2 Efficacy Analysis Methodology […]

[3] = test system: preterm infants born before week 32 of gestational age; assay: Growth velocity (body weight) in phase II crossover studies BVT.BSSL-020/-021; type: in vivo, human; conditions: for Growth velocity, LS Mean / Growth velocity, LS Mean Difference (rhBSSL − Placebo) / Growth velocity, Maximum / Growth velocity, Mean (SD) / Growth velocity, Median / Growth velocity, Minimum: 7 days
Description: Patients were randomized to infant formula/pasteurized breast milk supplemented with rhBSSL at a final concentration of 0.15 g/L, or to infant formula/pasteurized breast milk “supplemented” with sterile water for injection (as placebo) for the first 7 days. After a washout period of 2 days, the patient was “crossed over” to the other treatment regimen during a second 7-day treatment period. Collection of feces samples for CFA assessment were performed during the last 3 days (72 hours) of each treatment period.
The patient's weight in grams was recorded each day using a scale with an accuracy of at least +/−5 grams and entered on the CRF. To the extent possible, body weight was measured at approximately the same time each day.
• Growth velocity (g/kg/day): Growth velocity was defined as, for the first period, (the weight at the last assessment in the first period minus the weight at Day 1) divided by [the weight at Day 1 and (the day of the last assessment in the first period minus 1)], and for the second period, (the weight at the last assessment in the second period minus the weight at Day 10) divided by [the weight at Day 10 and (the day of the last assessment in the second period minus 10)]. The Secondary Efficacy Variables were: • CFA measured in food and feces samples collected between the tracer markers during the final 3 days (72 hours) of each treatment period. • CFA was calculated as [Fat (g/period) in food—Fat (g/period) in stool]/[Fat (g/period) in food)]*100. • Fat in food was calculated as ([Food (mL)−Vomit (mL)]*[Fat Content in Food (g/100 mL)]/100. This formula was based on the following assumptions: (a) fat content in vomit is the same as the fat content in food; (b) density of vomit is the same as density of food. • Fat content of food (formula or pasteurized breast milk) was determined using the same method as for the stool analysis and was performed by the same lab. Food (mL) and Vomit (mL) were calculated as the total amount of food or vomit recorded on or after the first tracer ingestion and prior to the second tracer ingestion. Vomit was recorded in grams on the CRF. Therefore, Vomit (mL) was calculated as Vomit (g)/Density. • There was one difference in the calculation of fat (g/period) in stool and fat content in food (g/100 mL) between the two studies. That difference relates to different contents of fatty acids in milk and formula, as described below: […]
The primary efficacy outcome, growth velocity, was analyzed by an analysis of variance (ANOVA) with treatment, regimen (pasteurized breast milk or infant formula), period, sequence, and patient nested within regimen and sequence as factors. All main effects were tested against the residual mean square from the ANOVA model.

[4] = test system: preterm infants born before week 32 of gestational age; conditions: in vivo
Description: as §1, §2

[5] = Safety Analysis Set, rhBSSL N = 61
[6] = TEAE, Safety Analysis Set, rhBSSL N = 61
[7] = BVT.BSSL-020 (infant formula), FAS, 0.15 g/L
[8] = BVT.BSSL-020 (infant formula), PP, 0.15 g/L
[9] = BVT.BSSL-021 (pasteurized breast milk), FAS, 0.15 g/L
[10] = BVT.BSSL-021 (pasteurized breast milk), PP, 0.15 g/L
[11] = combined studies 020+021, FAS, 0.15 g/L in feed
[12] = combined studies 020+021, PP, 0.15 g/L in feed

B1: rhBSSL: recombinant human bile-salt-stimulated lipase, SEQ ID. NO. 1, expressed from recombinant CHO cells; used in both clinical trials (protein, listed as Homo sapiens)
chain: AKLGAVYTEGGFVEGVNKKLGLLGDSVDIFKGIPFAAPTKALENPQPHPGWQGTLKAKNFKKRCLQATITQDSTYGDEDCLYLNIWVPQGRKQVSRDLPVMIWIYGGAFLMGSGHGANFLNNYLYDGEEIATRGNVIVVTFNYRVGPLGFLSTGDANLPGNYGLRDQHMAIAWVKRNIAAFGGDPNNITLFGESAGGASVSLQTLSPYNKGLIRRAISQSGVALSPWVIQKNPLFWAKKVAEKVGCPVGDAARMAQCLKVTDPRALTLAYKVPLAGLEYPMLHYVGFVPVIDGDFIPADPINLYANAADIDYIAGTNNMDGHIFASIDMPAINKGNKKVTEEDFYKLVSEFTITKGLRGAKTTFDVYTESWAQDPSQENKKKTVVDFETDVLFLVPTEIALAQHRANAKSAKTYAYLFSHPSRMPVYPKWVGADHADDIQYVFGKPFATPTGYRPQDRTVSKAMIAYWTNFAKTGDPNMGDSAVPTHWEPYTTENSGYLEITKKMGSSSMKRSLRTNFLRYWTLTYLALPTVTDQEATPVPPTGDSEATPVPPTGDSETAPVPPTGDSGAPPVPPTGDSGAPPVPPTGDSGAPPVPPTGDSGAPPVPPTGDSGAPPVPPTGDSGAPPVPPTGDSGAPPVPPTGDAGPPPVPPTGDSGAPPVPPTGDSGAPPVTPTGDSETAPVPPTGDSGAPPVPPTGDSEAAPVPPTDDSKEAQMPAVIRF
**Q.** Which results are given for B1?
**A.** Patients who died, n (%) of Patients [1, 5]: 0; Patients with any TEAE, n (%) of Patients [1, 5]: 29 (47.5%); Patients with any serious TEAE, n (%) of Patients [1, 5]: 0; Patients with any severe TEAE, n (%) of Patients [1, 5]: 1 (1.6%); Anemia neonatal, n (%) of Patients [1, 6]: 2 (3.3%); Anemia, n (%) of Patients [1, 6]: 3 (4.9%); Bradycardia, n (%) of Patients [1, 6]: 1 (1.6%); Cardiac murmur, n (%) of Patients [1, 6]: 4 (6.6%); Dermatitis diaper, n (%) of Patients [1, 6]: 13 (21.3%); Hypokalemia, n (%) of Patients [1, 6]: 3 (4.9%); Thrombocythemia, n (%) of Patients [1, 6]: 0; Tolerability when added to infant formula or pasteurized breast milk ([1]; preterm infants, combined analysis): well tolerated; Change in knee-to-heel length, rhBSSL versus placebo [2]: No noticeable differences; also recorded: No difference; Growth velocity, LS Mean [3, 7]: 18.05 g/kg/day; Growth velocity, LS Mean Difference (rhBSSL − Placebo) [3, 7]: 3.74 g/kg/day; Growth velocity, Maximum [3, 7]: 25.5 g/kg/day; Growth velocity, Mean (SD) [3, 7]: 18.06 g/kg/day and 18.06 (3.964) g/kg/day; Growth velocity, Median [3, 7]: 18.39 g/kg/day; Growth velocity, Minimum [3, 7]: 9.2 g/kg/day; Growth velocity, LS Mean [3, 8]: 17.75 g/kg/day; Growth velocity, LS Mean Difference (rhBSSL − Placebo) [3, 8]: 2.30 g/kg/day; Growth velocity, Maximum [3, 8]: 24.0 g/kg/day; Growth velocity, Mean (SD) [3, 8]: 17.79 (4.013) g/kg/day; Growth velocity, Median [3, 8]: 17.98 g/kg/day; Growth velocity, Minimum [3, 8]: 9.2 g/kg/day; Growth velocity, LS Mean [3, 9]: 15.58 g/kg/day; Growth velocity, LS Mean Difference (rhBSSL − Placebo) [3, 9]: 1.95 g/kg/day; Growth velocity, Maximum [3, 9]: 26.5 g/kg/day; Growth velocity, Mean (SD) [3, 9]: 15.54 g/kg/day and 15.54 (4.880) g/kg/day; Growth velocity, Median [3, 9]: 15.95 g/kg/day; Growth velocity, Minimum [3, 9]: 7.5 g/kg/day; Growth velocity, LS Mean [3, 10]: 16.47 g/kg/day; Growth velocity, LS Mean Difference (rhBSSL − Placebo) [3, 10]: 1.71 g/kg/day; Growth velocity, Maximum [3, 10]: 26.5 g/kg/day; Growth velocity, Mean (SD) [3, 10]: 16.16 (4.856) g/kg/day; Growth velocity, Median [3, 10]: 16.80 g/kg/day; Growth velocity, Minimum [3, 10]: 8.3 g/kg/day; Growth velocity, LS Mean [3, 11]: 16.86 g/kg/day; Growth velocity, LS Mean Difference (rhBSSL − Placebo) [3, 11]: 2.93 g/kg/day; Growth velocity, Maximum [3, 11]: 26.5 g/kg/day; Growth velocity, Mean (SD) [3, 11]: 16.92 (4.540) g/kg/day; Growth velocity, Median [3, 11]: 16.84 g/kg/day; Growth velocity, Minimum [3, 11]: 7.5 g/kg/day; Growth velocity, LS Mean [3, 12]: 17.15 g/kg/day; Growth velocity, LS Mean Difference (rhBSSL − Placebo) [3, 12]: 2.08 g/kg/day; Growth velocity, Maximum [3, 12]: 26.5 g/kg/day; Growth velocity, Mean (SD) [3, 12]: 17.08 (4.424) g/kg/day; Growth velocity, Median [3, 12]: 16.84 g/kg/day; Growth velocity, Minimum [3, 12]: 8.3 g/kg/day; Relative increase of growth velocity compared to the LS mean for placebo ([3]; combined studies, PP): 13.8%; Relative increase of growth velocity compared to the LS mean for placebo ([3]; formula-fed infants (BVT.BSSL-020), PP): 14.9%; Urinary tract infection, n (%) of Patients [4]: 1 (1.6%)

— patent publication US8986682B2, “Method to increase the absorption of unsaturated fatty acids by human infants” (Swedish Orphan Biovitrum AB (publ), priority 2010, dated 2015)
